# Measurements from the supplement of paper PMC5998384.
# Legend:
# HeLa Kyoto [1] = assay: solubility in G1/S (NP-40 vs SDS abundance) (log2 ratio); higher = more soluble; conditions: cell cycle stage: G1/S
# HeLa Kyoto [2] = assay: melting temperature (median over replicates), in situ; higher = more thermally stable
# HeLa Kyoto [3] = assay: solubility change mitosis vs G1/S (difference of NP-40 vs SDS log2 ratios) (log2 ratio difference); higher = more soluble in mitosis
# HeLa Kyoto [4] = assay: thermal stability score vs G1/S (z-score of summed log2 fold changes over temperatures); higher = more thermally stable than in G1/S
# [5] = cell cycle stage: early G1 (4.5 h after nocodazole release)
# 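Throughout, for melting temperature (median over replicates), in situ: HeLa Kyoto cells synchronized by double thymidine or nocodazole block, proteins quantified by TMT10plex mass spectrometry, three independent biological replicates.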
# 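Throughout, for solubility change mitosis vs G1/S (difference of NP-40 vs SDS log2 ratios): synchronized HeLa Kyoto cells (double thymidine block for G1/S, nocodazole release for mitosis), protein amounts in NP-40 versus SDS lysates quantified by mass spectrometry, three biological replicates.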
# 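Throughout, for solubility in G1/S (NP-40 vs SDS abundance): HeLa Kyoto cells arrested at G1/S by double thymidine block, proteins quantified by TMT10plex mass spectrometry in mild NP-40 versus SDS extracts, three biological replicates.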
# 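Throughout, for thermal stability score vs G1/S (z-score of summed log2 fold changes over temperatures): synchronized HeLa Kyoto cells, proteins quantified by TMT10plex mass spectrometry, three biological replicates, mitosis taken 0.5 h after nocodazole release, G1/S directly after double thymidine block.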
Substance,solubility in G1/S (log2) (HeLa Kyoto [1]),melting temperature (HeLa Kyoto [2]; cell cycle stage: G1/S) [°C],melting temperature (HeLa Kyoto [2]; cell cycle stage: mitosis) [°C],solubility change mitosis (log2) (HeLa Kyoto [3]),thermal stability score (HeLa Kyoto [4]; [5]),thermal stability score (HeLa Kyoto [4]; cell cycle stage: mitosis)
MSLMVSAGRGLGAVWSPTHVQVTVLQARGLRAKGPGGTSDAYAVIQVGKEKYATSVSERSLGAPVWREEATFELPSLLSSGPAAAATLQLTVLHRALLGLDKFLGRAEVDLRDLHRDQGRRKTQWYKLKSKPGKKDKERGEIEVDIQFMRNNMTASMFDLSMKDKSRNPFGKLKDKIKGKNKDSGSDTASAIIPSTTPSVDSDDESVVKDKKKKSKIKTLLSKSNLQKTPLSQSMSVLPTSKPEKVLLRPGDFQSQWDEDDNEDESSSASDVMSHKRTASTDLKQLNQVNFTLPKKEGLSFLGGLRSKNDVLSRSNVCINGNHVYLEQPEAKGEIKDSSPSSSPSPKGFRKKHLFSSTENLAAGSWKEPAEGGGLSSDRQLSESSTKDSLKSMTLPSYRPAPLVSGDLRENMAPANSEATKEAKESKKPESRRSSLLSLMTGKKDVAKGSEGENPLTVPGREKEGMLMGVKPGEDASGPAEDLVRRSEKDTAAVVSRQGSSLNLFEDVQITEPEAEPESKSEPRPPISSPRAPQTRAVKPRLEVSPEAQPTARLPSPTDSPSSLPPLPSSSGQASVPSELGHGADTQSSESPSVFSSLSSPIAAPISTSTPIESWPLVDRGQAKSEGPPLLPKAELQTESLTPVPNSGSSALGSLFKQPSFPANKGTEDSLMGRTRETGTEKNTSSLELEESLPEQPETGRQEEELPRFPCKKQDYSPSSGEAQEVPFALSLSSDGAVSPVGELAAGGDRDLESQAGSLVESKARDAAEEVAPPLPMGASVPSIDSMMRKLEEMGLNLRKDQKKTKKRVSFSEQLFTEEAVAGAALLVEGHSSCPQELNPAWSVAGNASDGEPPESPHAEDSERESVTTPGPATCGAPASPADHLLLPSQEESFSEVPMSEASSAKDTPLFRMEGEDALVTQYQSKASDHEGLLSDPLSDLQLVSDFKSPIMADLNLSLPSIPEVASDDERIDQVEDDGDQVEDDGETAKSSTLDIGALSLGLVVPCPERGKGPSGEADRLVLGEGLCDFRLQAPQASVTAPSEQTTEFGIHKPHLGKSSSLDKQLPGPSGGEEEKPMGNGSPSPPPGTSLDNPVPSPSPSEIFPVTHSFPSSAHSDTHHTSTAESQKKATAEGSAGRVENFGKRKPLLQAWVSPSETHPVSAQPGAGTGSAKHRLHPVKPMNAMATKVANCSLGTATIISENLNNEVMMKKYSPSDPAFAYAQLTHDELIQLVLKQKETISKKEFQVRELEDYIDNLLVRVMEETPNILRIPTQVGKKAGKM [RAB11FIP1],0.306,51,50.1,-0.196,0.112,0.383
NIFK,-1.88,51.7,52.8,0.784,4.37,4.42
MLKKFDKKDEESGGGSNPFQHLEKSAVLQEARVFNETPINPRKCAHILTKILYLINQGEHLGTTEATEAFFAMTKLFQSNDPTLRRMCYLTIKEMSCIAEDVIIVTSSLTKDMTGKEDNYRGPAVRALCQITDSTMLQAIERYMKQAIVDKVPSVSSSALVSSLHLLKCSFDVVKRWVNEAQEAASSDNIMVQYHALGLLYHVRKNDRLAVNKMISKVTRHGLKSPFAYCMMIRVASKQLEEEDGSRDSPLFDFIESCLRNKHEMVVYEAASAIVNLPGCSAKELAPAVSVLQLFCSSPKAALRYAAVRTLNKVAMKHPSAVTACNLDLENLVTDSNRSIATLAITTLLKTGSESSIDRLMKQISSFMSEISDEFKVVVVQAISALCQKYPRKHAVLMNFLFTMLREEGGFEYKRAIVDCIISIIEENSESKETGLSHLCEFIEDCEFTVLATRILHLLGQEGPKTTNPSKYIRFIYNRVVLEHEEVRAGAVSALAKFGAQNEEMLPSILVLLKRCVMDDDNEVRDRATFYLNVLEQKQKALNAGYILNGLTVSIPGLERALQQYTLEPSEKPFDLKSVPLATAPMAEQRTESTPITAVKQPEKVAATRQEIFQEQLAAVPEFRGLGPLFKSSPEPVALTESETEYVIRCTKHTFTNHMVFQFDCTNTLNDQTLENVTVQMEPTEAYEVLCYVPARSLPYNQPGTCYTLVALPKEDPTAVACTFSCMMKFTVKDCDPTTGETDDEGYEDEYVLEDLEVTVADHIQKVMKLNFEAAWDEVGDEFEKEETFTLSTIKTLEEAVGNIVKFLGMHPCERSDKVPDNKNTHTLLLAGVFRGGHDILVRSRLLLLDTVTMQVTARSLEELPVDIILASVG [COPG1],-0.169,52,51.5,-0.224,0.468,-0.737
MSSPASTPSRRGSRRGRATPAQTPRSEDARSSPSQRRRGEDSTSTGELQPMPTSPGVDLQSPAAQDVLFSSPPQMHSSAIPLDFDVSSPLTYGTPSSRVEGTPRSGVRGTPVRQRPDLGSAQKGLQVDLQSDGAAAEDIVASEQSLGQKLVIWGTDVNVAACKENFQRFLQRFIDPLAKEEENVGIDITEPLYMQRLGEINVIGEPFLNVNCEHIKSFDKNLYRQLISYPQEVIPTFDMAVNEIFFDRYPDSILEHQIQVRPFNALKTKNMRNLNPEDIDQLITISGMVIRTSQLIPEMQEAFFQCQVCAHTTRVEMDRGRIAEPSVCGRCHTTHSMALIHNRSLFSDKQMIKLQESPEDMPAGQTPHTVILFAHNDLVDKVQPGDRVNVTGIYRAVPIRVNPRVSNVKSVYKTHIDVIHYRKTDAKRLHGLDEEAEQKLFSEKRVELLKELSRKPDIYERLASALAPSIYEHEDIKKGILLQLFGGTRKDFSHTGRGKFRAEINILLCGDPGTSKSQLLQYVYNLVPRGQYTSGKGSSAVGLTAYVMKDPETRQLVLQTGALVLSDNGICCIDEFDKMNESTRSVLHEVMEQQTLSIAKAGIICQLNARTSVLAAANPIESQWNPKKTTIENIQLPHTLLSRFDLIFLLLDPQDEAYDRRLAHHLVALYYQSEEQAEEELLDMAVLKDYIAYAHSTIMPRLSEEASQALIEAYVDMRKIGSSRGMVSAYPRQLESLIRLAEAHAKVRLSNKVEAIDVEEAKRLHREALKQSATDPRTGIVDISILTTGMSATSRKRKEELAEALKKLILSKGKTPALKYQQLFEDIRGQSDIAITKDMFEEALRALADDDFLTVTGKTVRLL [MCM4],0.157,50.6,50.4,-0.0425,0.944,0.88
MEEDTDYRIRFSSLCFFNDHVGFHGTIKSSPSDFIVIEIDEQGQLVNKTIDEPIFKISEIQLEPNNFPKKPKLDLQNLSLEDGRNQEVHTLIKYTDGDQNHQSGSEKEDTIVDGTSKCEEKADVLSSFLDEKTHELLNNFACDVREKWLSKTELIGLPPEFSIGRILDKNQRASLHSAIRQKFPFLVTVGKNSEIVVKPNLEYKELCHLVSEEEAFDFFKYLDAKKENSKFTFKPDTNKDHRKAVHHFVNKKFGNLVETKSFSKMNCSAGNPNVVVTVRFREKAHKRGKRPLSECQEGKVIYTAFTLRKENLEMFEAIGFLAIKLGVIPSDFSYAGLKDKKAITYQAMVVRKVTPERLKNIEKEIEKKRMNVFNIRSVDDSLRLGQLKGNHFDIVIRNLKKQINDSANLRERIMEAIENVKKKGFVNYYGPQRFGKGRKVHTDQIGLALLKNEMMKAIKLFLTPEDLDDPVNRAKKYFLQTEDAKGTLSLMPEFKVRERALLEALHRFGMTEEGCIQAWFSLPHSMRIFYVHAYTSKIWNEAVSYRLETYGARVVQGDLVCLDEDIDDENFPNSKIHLVTEEEGSANMYAIHQVVLPVLGYNIQYPKNKVGQWYHDILSRDGLQTCRFKVPTLKLNIPGCYRQILKHPCNLSYQLMEDHDIDVKTKGSHIDETALSLLISFDLDASCYATVCLKEIMKHDV [PUS7L],-0.0836,51,51.9,-0.137,0.23,0.98
